T1: biotinylated human VWF cysteine knot (CK) domain construct (human, biotin on the in vitro biotinylation tag (residue not stated); one N-glycan)
T1 construct: Disulfide-linked homodimer; also called biotinylated human VWF CK domain; human VWF CK domain construct
T1 chain: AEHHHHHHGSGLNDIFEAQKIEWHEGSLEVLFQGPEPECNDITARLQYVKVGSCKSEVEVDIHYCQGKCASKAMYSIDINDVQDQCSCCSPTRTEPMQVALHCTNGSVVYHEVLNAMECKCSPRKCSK

B1: 11485_Lib1_scFv (scFv, not shown: small tags and cut ends)
scFv: QVQLVQSGAEVKKPGASVKVSCKVSGAPSAAIIHWVRQAPGKGLEWMGGFTQIFGTAIYAQKFQGRVTMTEDTSTDTAYMELSSLKSEDTAVYYCAREGIGGHDAFDIWGQGTMVTVSSSGGSTITSYNVYYTKLSSSGTDIQMTQSPSSVSASVGDRVTITCRASQDISKNLAWYQQKPGKAPKLLIYKASKLESGVPSRFSGSGSGTDFTLTISSLQPEDFANYYCLHDYTYPPTFGGGTKVEIK
B2: 965_Lib4_scFv (scFv, not shown: small tags and cut ends)
scFv: QVQLQESGPGLVKPSQTLSLTCTVSGASFGDNYWSWIRQPPGKGLEWIGYIDTSGSSDYNPSLKSRVTMSVDTSKNQFSLKVNSVTAADTAVYYCARDALGYYYMDVWGKGTTVTVSSSGGSTITSYNVYYTKLSSSGTEIVMTQSPATLSLSPGERATLSCRASQGISGRLAWYQQKPGQAPRLLIYDASARASGIPARFSGSGSGTDFTLTISSLEPEDFAVYYCQQYGTSPYTFGGGTKVEIK
B3: 2301_Lib4_scFv (scFv, not shown: small tags and cut ends)
scFv: QVQLQESGPGLVKPSQTLSLTCTVSGASISTSDHSWSWIRQPPGKGLEWIGYIRDTGSTDYNPSLKSRVTMSVDTSKNQFSLKVNSVTAADTAVYYCAISSTERWKQSFGVDTEYFQHWGQGTLVTVSSSGGSTITSYNVYYTKLSSSGTEIVMTQSPATLSLSPGERATLSCRASRYVSTNLAWYQQKPGQAPRLLIYDAVTRAPGIPARFSGSGSGTDFTLTISSLEPEDFAVYYCQQYHSLPLIFGGGTKVEIK
B4: 16_Lib8_scFv (scFv, not shown: small tags and cut ends)
scFv: EVQLVESGGGLVQPGRSLRLSCAASGFRFDEYDMHWVRQAPGKGLEWVSAISSESASIDYADSVEGRFTISRDNAKNSLYLQMNSLRAEDTAVYYCARDGAYGDYFDYWGQGTMVTVSSSGGSTITSYNVYYTKLSSSGTDIQMTQSPSSLSASVGDRVTITCRASQDIKSWLAWYQQKPGKAPKLLIYGASTLQSGVPSRFSGSGSGTDFTLTISSLQPEDVATYYCQQSYSAPYTFGGGTKVEIK
B5: 487_Lib1_scFv (scFv, not shown: small tags and cut ends)
scFv: QVQLVQSGAEVKKPGASVKVSCKVSGYTFTSHIIHWVRQAPGKGLEWMGGMNPYSNKAIYAQKFQGRVTMTEDTSTDTAYMELSSLKSEDTAVYYCARDASDYGDYGYYYYYMDVWGKGTTVTVSSSGGSTITSYNVYYTKLSSSGTDIQMTQSPSSVSASVGDRVTITCRASQSIGDFLAWYQQKPGKAPKLLIYDASHLQTGVPSRFSGSGSGTDFTLTISSLQPEDFANYYCQQTSTIPPTFGGGTKVEIK
B6: Lib4_P2_A10_scFv (scFv, not shown: small tags and cut ends)
scFv: QVQLQESGPGLVKPSQTLSLTCTVSGASLGHQYWSWIRQPPGKGLEWIGYIDTSGSTDYNPSLKSRVTMSVDTSKNQFSLKVNSVTAADTAVYYCARVANYYYYMDVWGKGTTVTVSSSGGSTITSYNVYYTKLSSSGTEIVMTQSPATLSLSPGERATLSCRASQSVSNRLAWYQQKPGQAPRLLIYDASNRATGIPARFSGSGSGTDFTLTISSLEPEDFAVYYCQQYFITPSTFGGGTKVEIK
B7: 256_Lib8_scFv (scFv, not shown: small tags and cut ends)
scFv: EVQLVESGGGLVQPGRSLRLSCAASGFTVSSNAMHWVRQAPGKGLEWVSAIGTFADTDYADSVEGRFTISRDNAKNSLYLQMNSLRAEDTAVYYCAREGAAAGTNFDYWGQGTLVTVSSSGGSTITSYNVYYTKLSSSGTDIQMTQSPSSLSASVGDRVTITCRASQGIRSYLAWYQQKPGKAPKLLIYGASTLEGGVPSRFSGSGSGTDFTLTISSLQPEDVATYYCQQSYSTPPKFGGGTKVEIK
B8: Lib1_P1_G3_scFv (scFv, not shown: small tags and cut ends)
scFv: QVQLVQSGAEVKKPGASVKVSCKVSGYTSRQYIHWVRQAPGKGLEWMGWVTPIFGTTNYAQKFQGRVTMTEDTSTDTAYMELSSLKSEDTAVYYCAREWTGTTAFDIWGQGTLVTVSSSGGSTITSYNVYYTKLSSSGTDIQMTQSPSSVSASVGDRVTITCRASQDIGHYLAWYQQKPGKAPKLLIYAASNRASGVPSRFSGSGSGTDFTLTISSLQPEDFANYYCQQGYSAPYGFGGGTKVEIK
B9: 399_Lib1_scFv (scFv, not shown: small tags and cut ends)
scFv: QVQLVQSGAEVKKPGASVKVSCKVSGITFTSDYIHWVRQAPGKGLEWMGGMNPYSNKAIYAQKFQGRVTMTEDTSTDTAYMELSSLKSEDTAVYYCATGGLRIAARTSYFDYWGQGTLVTVSSSGGSTITSYNVYYTKLSSSGTDIQMTQSPSSVSASVGDRVTITCRASMDIAGSLAWYQQKPGKAPKLLIYDTSFRATGVPSRFSGSGSGTDFTLTISSLQPEDFANYYCQQYDNPPRLTFGGGTKVEIK
B10: 27_Lib4_scFv (scFv, not shown: small tags and cut ends)
scFv: QVQLQESGPGLVKPSQTLSLTCTVSGASFGDHYWSWIRQPPGKGLEWIGYIDATGSIDYNPSLKSRVTMSVDTSKNQFSLKVNSVTAADTAVYYCARVASYYYYMDVWGKGTTVTVSSSGGSTITSYNVYYTKLSSSGTEIVMTQSPATLSLSPGERATLSCRASQSITGSYLAWYQQKPGQAPRLLIYGASDRAPGIPARFSGSGSGTDFTLTISSLEPEDFAVYYCQQYGSFPYTFGGGTKVEIK
B11: 4035_Lib1_scFv (scFv, not shown: small tags and cut ends)
scFv: QVQLVQSGAEVKKPGASVKVSCKVSGYAFPSYGIHWVRQAPGKGLEWMGGISAFTGDTIYAQKFQGRVTMTEDTSTDTAYMELSSLKSEDTAVYYCASGPTNVLTGLMESAEYFQHWGQGTLVTVSSSGGSTITSYNVYYTKLSSSGTDIQMTQSPSSVSASVGDRVTITCRASQGISRDLAWYQQKPGKAPKLLIYGASGRATGVPSRFSGSGSGTDFTLTISSLQPEDFANYYCQQSYITPTTFGGGTKVEIK
B12: Lib6_P3_B9_scFv (scFv, not shown: small tags and cut ends)
scFv: EVQLVQSGAEVKKPGASVKVSCKASGDTFSSHVISWVRQAPGQGLEWMGGINPRTGTTIYAQKLQGRGTMTTDPSTSTAYMELRSLRSDDTAVYYCARTRPWAGLDVWGQGTTVTVSSSGGSTITSYNVYYTKLSSSGTESALTQPASVSGSPGQSITISCTGTNIEYKGVSWYQQHPGKAPKLMIYGVDKRPSGVSNRFSGSKSGNTASLTISGLQAEDEADYYCQAWGTSTAIFGGGTKLTVL
B13: 96_Lib4_scFv (scFv, not shown: small tags and cut ends)
scFv: QVQLQESGPGLVKPSQTLSLTCTVSGESFSTSYWSWIRQPPGKGLEWIGYITHSGYTDYNPSLKSRVTMSVDTSKNQFSLKVNSVTAADTAVYYCARGGRFPFWYFDLWGRGSLVTVSSSGGSTITSYNVYYTKLSSSGTEIVMTQSPATLSLSPGERATLSCRASRSIGSNLAWYQQKPGQAPRLLIYGATTRATGIPARFSGSGSGTDFTLTISSLEPEDFAVYYCQQYKNDATFGGGTKVEIK
B14: Lib1_P1_A2_scFv (scFv, not shown: small tags and cut ends)
scFv: QVQLVQSGAEVKKPGASVKVSCKVSEGTLSRHYINWVRQAPGKGLEWMGGINAKSGATIYAQKFQGRVTMTEDTSTDTAYMELSSLKSEDTAVYYCAKDTGDDILTDYSDAFDIWGQGTMVTVSSSGGSTITSYNVYYTKLSSSGTDIQMTQSPSSVSASVGDRVTITCRASQNIGTSLAWYQQKPGKAPKLLIYGASNLESGVPSRFSGSGSGTDFTLTISSLQPEDFANYYCLQYNDWPPLYSFGGGTKVEIK
B15: Lib1_P1_A1_scFv (scFv, not shown: small tags and cut ends)
scFv: QVQLVQSGAEVKKPGASVKVSCKVSGDTLSNYAIHWVRQAPGKGLEWMGGINPNAGTTIYAQKFQGRVTMTEDTSTDTAYMELSSLKSEDTAVYYCARDSSSWSQFGYYYYYMDVWGKGTTVTVSSSGGSTITSYNVYYTKLSSSGTDIQMTQSPSSVSASVGDRVTITCRASQSIGDFLAWYQQKPGKAPKLLIYDASHLQTGVPSRFSGSGSGTDFTLTISSLQPEDFANYYCQQTSTIPPTFGGGTKVEIK
B16: Lib4_P2_A3_scFv (scFv, not shown: small tags and cut ends)
scFv: QVQLQESGPGLVKPSQTLSLTCTVSGVSLSTSDYSWSWIRQPPGKGLEWIGYISPPGRSDYNPSLKSRVTMSVDTSKNQFSLKVNSVTAADTAVYYCARHSSSGWYSTYDFDSWGQGTMVTVSSSGGSTITSYNVYYTKLSSSGTEIVMTQSPATLSLSPGERATLSCRASQNIHSNLAWYQQKPGQAPRLLIYGATTRATGIPARFSGSGSGTDFTLTISSLEPEDFAVYYCQQSYTTPLTFGGGTKVEIK
B17: 189_Lib4_scFv (scFv, not shown: small tags and cut ends)
scFv: QVQLQESGPGLVKPSQTLSLTCTVSGVTFSSYGWSWIRQPPGKGLEWIGYVDTSGSTDYNPSLKSRVTMSVDTSKNQFSLKVNSVTAADTAVYYCARTTYYYDSSGFARGWFDPWGQGTLVTVSSSGGSTITSYNVYYTKLSSSGTEIVMTQSPATLSLSPGERATLSCRASQSVPSSHLAWYQQKPGQAPRLLIYDATNRAAGIPARFSGSGSGTDFTLTISSLEPEDFAVYYCQQYDNWPSPSFGGGTKVEIK
B18: Lib6_P3_A8_scFv (scFv, not shown: small tags and cut ends)
scFv: EVQLVQSGAEVKKPGASVKVSCKASGYRFTNYDISWVRQAPGQGLEWMGGINPSSGITIYAQKLQGRGTMTTDPSTSTAYMELRSLRSDDTAVYYCARGAAYGDYLDYWGQGTLVTVSSSGGSTITSYNVYYTKLSSSGTESALTQPASVSGSPGQSITISCTGTNLGEKYVSWYQQHPGKAPKLMIYSTSQRPSGVSNRFSGSKSGNTASLTITGLQAEDEADYYCSSYTASSTPGLVFGGGTKLTVL
B19: 4956_Lib1_scFv (scFv, not shown: small tags and cut ends)
scFv: QVQLVQSGAEVKKPGASVKVSCKVSGYTLTSNYIHWVRQAPGKGLEWMGGFNPSSGSTIYAQKFQGRVTMTEDTSTDTAYMELSSLKSEDTAVYYCARTLYDFWSGYLDAFDIWGQGTMVTVSSSGGSTITSYNVYYTKLSSSGTDIQMTQSPSSVSASVGDRVTITCRASQNIRSSLAWYQQKPGKAPKLLIYAASNLEPGVPSRFSGSGSGTDFTLTISSLQPEDFANYYCQQYEDTPLTFGGGTKVEIK

Biological target: T1, biotinylated human VWF cysteine knot …
Assay: SPR, scFv captured on anti-SV5, pH 7.4

Binding result, binds:
B1
B2
B3
B4
B5
B6
B7
B8
B9
B10
B11
B12
B13
B14
B15
B16
B17
B18
B19
